Our source for the binding signal values is publication PMC5996148, “Data set on G4 DNA interactions with human proteins”.

Data set [1] has as its target T1, Peptidyl-tRNA hydrolase 2, mitochondrial (human, UniProt Q9Y3E5 1-179).
T1 sequence: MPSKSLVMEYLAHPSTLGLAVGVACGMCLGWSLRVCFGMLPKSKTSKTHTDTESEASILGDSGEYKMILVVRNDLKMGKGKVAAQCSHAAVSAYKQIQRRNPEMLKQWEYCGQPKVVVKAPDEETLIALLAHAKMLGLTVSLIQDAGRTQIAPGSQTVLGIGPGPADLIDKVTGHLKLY
In words: protein microarray; 2.5 uM ON; 4.85 at 25 uM; Microarray: 20 mM Tris pH 7.5, 5 mM MgCl2, 100 mM KCl, 0.1% Tween-20, A/T-rich ON blocker mix; EMSA: 20 mM Tris-HCl pH 8, 100 mM KCl, 200 nM ON, 0-200 nM BRD3. The settings on record: protein: commercial; label: biotin; intramolecular parallel G4. A general note: In EMSA bound probe runs differently from free probe, usually more slowly.

Data set [2] has as its target Coiled-coil domain-containing protein 28A (human, UniProt Q8IWP9 1-274). The data set is described as above. As to conditions: protein: commercial; label: biotin; intramolecular parallel G4.
In data set [3] the target is peptidyl arginine deiminase, type IV (human, UniProt Q9UM07 1-663). The description is as above. The settings on record: protein: commercial; label: biotin; intramolecular parallel G4.
Chain of peptidyl arginine deiminase, type IV (Q9UM07 whole entry): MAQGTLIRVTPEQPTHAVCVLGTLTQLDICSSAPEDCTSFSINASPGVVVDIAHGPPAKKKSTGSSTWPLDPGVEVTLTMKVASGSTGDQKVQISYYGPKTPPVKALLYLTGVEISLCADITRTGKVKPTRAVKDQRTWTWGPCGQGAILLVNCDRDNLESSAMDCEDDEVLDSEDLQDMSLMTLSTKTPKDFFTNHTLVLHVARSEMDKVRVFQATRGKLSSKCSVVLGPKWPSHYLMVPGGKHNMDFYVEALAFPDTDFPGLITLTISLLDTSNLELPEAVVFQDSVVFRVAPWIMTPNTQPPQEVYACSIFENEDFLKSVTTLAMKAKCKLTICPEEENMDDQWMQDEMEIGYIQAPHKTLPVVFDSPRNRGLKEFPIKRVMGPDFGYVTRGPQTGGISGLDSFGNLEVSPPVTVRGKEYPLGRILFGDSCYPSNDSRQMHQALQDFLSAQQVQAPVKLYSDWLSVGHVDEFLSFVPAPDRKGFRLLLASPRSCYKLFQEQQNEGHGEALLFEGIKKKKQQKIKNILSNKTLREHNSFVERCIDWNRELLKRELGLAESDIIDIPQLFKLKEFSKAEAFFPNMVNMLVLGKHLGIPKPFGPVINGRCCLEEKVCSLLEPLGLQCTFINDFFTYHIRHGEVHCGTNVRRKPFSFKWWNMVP
Data set [4] addresses T2, bromodomain containing 3 (human, UniProt Q15059-2 1-556). Described as above. As to conditions: protein: commercial; label: biotin; intramolecular parallel G4.
For data set [5], the target named is T3, hypothetical protein HSPC111 (human, UniProt Q9Y3C1 1-178).
T3 sequence: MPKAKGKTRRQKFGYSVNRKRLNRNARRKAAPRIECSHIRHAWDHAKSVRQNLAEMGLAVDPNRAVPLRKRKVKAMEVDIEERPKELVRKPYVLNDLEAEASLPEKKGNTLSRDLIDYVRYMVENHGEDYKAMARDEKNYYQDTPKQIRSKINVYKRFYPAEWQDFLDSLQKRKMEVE
The data set is described as above. The settings on record: protein: commercial; label: biotin; intramolecular parallel G4.

For data set [6], the target named is peripheral myelin protein 2 (human, UniProt P02689 1-132). Nature of the data set: protein microarray; 2.5 uM ON; 4.86 at 25 uM; Microarray: 20 mM Tris pH 7.5, 5 mM MgCl2, 100 mM KCl, 0.1% Tween-20, A/T-rich ON blocker mix; EMSA: 20 mM Tris-HCl pH 8, 100 mM KCl, 200 nM ON, 0-200 nM BRD3. The settings on record: protein: commercial; label: biotin; intramolecular parallel G4.
Chain of peripheral myelin protein 2 (P02689 whole entry): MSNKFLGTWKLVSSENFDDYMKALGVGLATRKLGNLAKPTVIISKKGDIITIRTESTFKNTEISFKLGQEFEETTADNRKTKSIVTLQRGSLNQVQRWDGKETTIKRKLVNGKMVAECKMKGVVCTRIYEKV

Data set [7] has as its target Cyclin-dependent kinase-like 3 (human, UniProt Q8IVW4-2 1-455). Described as above. As to conditions: protein: commercial; label: biotin; intramolecular parallel G4.
Data set [8] has as its target T4, LOC153684 protein (FLJ42001 fis, clone SPLEN2029912) (human, UniProt Q6ZVW3 1-145).
T4 sequence: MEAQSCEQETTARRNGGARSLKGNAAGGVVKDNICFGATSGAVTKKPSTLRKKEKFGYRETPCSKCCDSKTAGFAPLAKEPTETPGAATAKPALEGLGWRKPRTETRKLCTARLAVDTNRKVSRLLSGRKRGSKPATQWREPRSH
Described as above. The settings on record: protein: commercial; label: biotin; intramolecular parallel G4.

The target in data set [9] is actin related protein 2/3 complex, subunit 1B, 41 kDa (human, UniProt O15143 1-372). Described as above. The settings on record: protein: commercial; label: biotin; intramolecular parallel G4.
Data set [10] concerns the target T5, survival motor neuron domain containing 1 (human, UniProt O75940 1-238).
T5 sequence: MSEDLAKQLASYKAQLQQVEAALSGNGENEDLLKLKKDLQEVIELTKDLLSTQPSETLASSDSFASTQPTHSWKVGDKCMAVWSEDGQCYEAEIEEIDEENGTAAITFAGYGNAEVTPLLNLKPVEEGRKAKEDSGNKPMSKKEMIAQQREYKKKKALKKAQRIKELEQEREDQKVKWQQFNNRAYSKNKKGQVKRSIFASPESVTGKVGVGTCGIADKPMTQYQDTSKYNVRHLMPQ
The description is as above. The settings on record: protein: commercial; label: biotin; intramolecular parallel G4.

In data set [11] the target is T6, ankyrin repeat and zinc finger domain containing 1 (human, UniProt Q9H8Y5 1-726).
T6 sequence: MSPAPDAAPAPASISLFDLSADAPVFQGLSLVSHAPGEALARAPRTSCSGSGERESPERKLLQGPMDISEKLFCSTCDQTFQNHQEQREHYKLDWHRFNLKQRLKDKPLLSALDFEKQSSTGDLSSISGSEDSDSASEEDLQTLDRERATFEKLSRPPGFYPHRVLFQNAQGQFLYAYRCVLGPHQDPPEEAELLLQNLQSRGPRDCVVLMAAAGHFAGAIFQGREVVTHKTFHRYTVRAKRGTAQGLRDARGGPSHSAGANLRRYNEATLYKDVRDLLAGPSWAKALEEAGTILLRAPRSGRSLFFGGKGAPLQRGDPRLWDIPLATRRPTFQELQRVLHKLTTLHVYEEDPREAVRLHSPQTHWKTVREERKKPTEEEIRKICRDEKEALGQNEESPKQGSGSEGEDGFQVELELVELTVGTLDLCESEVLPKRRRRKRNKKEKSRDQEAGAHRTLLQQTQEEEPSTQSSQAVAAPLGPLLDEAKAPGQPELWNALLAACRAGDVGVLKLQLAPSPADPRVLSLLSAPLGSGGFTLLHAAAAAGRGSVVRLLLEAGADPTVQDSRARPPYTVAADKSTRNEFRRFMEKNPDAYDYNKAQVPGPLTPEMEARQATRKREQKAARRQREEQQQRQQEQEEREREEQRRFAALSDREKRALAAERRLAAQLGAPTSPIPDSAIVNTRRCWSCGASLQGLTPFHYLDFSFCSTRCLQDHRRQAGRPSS
Described as above. As to conditions: protein: commercial; label: biotin; intramolecular parallel G4.

For data set [12], the target named is T7, GABA(A) receptor-associated protein (human, UniProt O95166 1-117). The data set is described as above. As to conditions: protein: commercial; label: biotin; intramolecular parallel G4.
T7 sequence (O95166 whole entry): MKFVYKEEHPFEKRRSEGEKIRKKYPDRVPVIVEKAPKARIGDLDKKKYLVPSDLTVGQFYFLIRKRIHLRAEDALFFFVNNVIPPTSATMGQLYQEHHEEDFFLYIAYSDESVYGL
Data set [13] deals with T8, chromosome 1 open reading frame 63 (human, UniProt Q9BUV0 1-290).
T8 sequence: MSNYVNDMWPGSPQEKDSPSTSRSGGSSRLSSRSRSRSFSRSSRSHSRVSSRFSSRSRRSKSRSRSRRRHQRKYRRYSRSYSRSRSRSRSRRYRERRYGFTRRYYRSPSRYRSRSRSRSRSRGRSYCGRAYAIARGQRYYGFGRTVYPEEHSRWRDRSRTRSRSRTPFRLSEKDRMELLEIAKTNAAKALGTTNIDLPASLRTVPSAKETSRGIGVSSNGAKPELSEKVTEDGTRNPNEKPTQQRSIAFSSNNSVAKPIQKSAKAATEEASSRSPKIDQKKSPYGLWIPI
Described as above. The settings on record: protein: commercial; label: biotin; intramolecular parallel G4.

The target of data set [14] is T9, additional sex combs like 1 (human, UniProt Q6P1M8 1-84).
T9 sequence: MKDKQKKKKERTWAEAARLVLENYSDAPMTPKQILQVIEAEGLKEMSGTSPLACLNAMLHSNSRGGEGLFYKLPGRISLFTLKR
Described as above. As to conditions: protein: commercial; label: biotin; intramolecular parallel G4.

For data set [15], the target named is T2, bromodomain containing 3. In words: protein microarray; 2.5 uM ON; 6.47 at 25 uM; Microarray: 20 mM Tris pH 7.5, 5 mM MgCl2, 100 mM KCl, 0.1% Tween-20, A/T-rich ON blocker mix; EMSA: 20 mM Tris-HCl pH 8, 100 mM KCl, 200 nM ON, 0-200 nM BRD3. The settings on record: protein: commercial; label: biotin; G4; mixed topology for unmodified strand, CD differs when biotinylated.

Data set [16] deals with T7, GABA(A) receptor-associated protein. The data set is described as above. As to conditions: protein: commercial; label: biotin; G4; mixed topology for unmodified strand, CD differs when biotinylated.
Data set [17] has as its target T8, chromosome 1 open reading frame 63. Described as above. As to conditions: protein: commercial; label: biotin; G4; mixed topology for unmodified strand, CD differs when biotinylated.
The target of data set [18] is T9, additional sex combs like 1. The data set is described as above. The settings on record: protein: commercial; label: biotin; G4; mixed topology for unmodified strand, CD differs when biotinylated.

T2 sequence (Q15059 other isoform, or with tags, fused parts or gaps): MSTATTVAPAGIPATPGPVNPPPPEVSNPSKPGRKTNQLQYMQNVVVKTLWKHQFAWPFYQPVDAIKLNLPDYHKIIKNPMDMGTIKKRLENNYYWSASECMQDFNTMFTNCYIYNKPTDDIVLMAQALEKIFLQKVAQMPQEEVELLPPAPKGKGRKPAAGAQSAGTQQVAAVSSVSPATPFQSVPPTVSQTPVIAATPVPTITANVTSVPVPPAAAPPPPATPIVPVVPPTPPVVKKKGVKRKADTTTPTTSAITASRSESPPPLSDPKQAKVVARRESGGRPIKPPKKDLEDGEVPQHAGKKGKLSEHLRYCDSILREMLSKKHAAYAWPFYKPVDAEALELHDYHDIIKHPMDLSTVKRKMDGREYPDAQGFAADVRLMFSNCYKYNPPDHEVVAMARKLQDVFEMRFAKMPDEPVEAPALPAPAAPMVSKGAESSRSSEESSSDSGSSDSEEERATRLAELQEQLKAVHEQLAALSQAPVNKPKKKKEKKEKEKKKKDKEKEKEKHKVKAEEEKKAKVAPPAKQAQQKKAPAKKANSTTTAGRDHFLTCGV
Chain of Cyclin-dependent kinase-like 3 (Q8IVW4 1-455): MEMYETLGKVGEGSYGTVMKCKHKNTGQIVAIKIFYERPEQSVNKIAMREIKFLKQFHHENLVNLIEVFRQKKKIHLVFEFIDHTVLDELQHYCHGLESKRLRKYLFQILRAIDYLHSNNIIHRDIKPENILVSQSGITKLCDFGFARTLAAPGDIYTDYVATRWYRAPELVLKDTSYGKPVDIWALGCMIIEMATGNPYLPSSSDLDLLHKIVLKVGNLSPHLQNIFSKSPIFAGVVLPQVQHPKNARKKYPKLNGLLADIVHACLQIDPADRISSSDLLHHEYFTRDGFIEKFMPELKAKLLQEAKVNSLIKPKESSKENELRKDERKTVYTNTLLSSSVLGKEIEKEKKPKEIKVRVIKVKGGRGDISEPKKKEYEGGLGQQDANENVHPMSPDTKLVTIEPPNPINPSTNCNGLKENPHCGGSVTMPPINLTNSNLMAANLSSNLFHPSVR
Chain of Coiled-coil domain-containing protein 28A (Q8IWP9 whole entry, the tested form may be a part): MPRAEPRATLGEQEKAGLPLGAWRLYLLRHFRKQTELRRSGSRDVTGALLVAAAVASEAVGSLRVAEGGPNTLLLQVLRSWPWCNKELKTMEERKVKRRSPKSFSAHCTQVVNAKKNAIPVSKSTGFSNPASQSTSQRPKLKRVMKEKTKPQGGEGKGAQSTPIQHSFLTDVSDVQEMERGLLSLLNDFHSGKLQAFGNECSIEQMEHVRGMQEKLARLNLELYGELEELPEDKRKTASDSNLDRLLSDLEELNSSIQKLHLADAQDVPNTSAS

B1: G4-2 biotinylated (Ct1) (structured_DNA)
DNA: GGTGACAGGGGTATGGGGAGGGG
modifications: 3'-biotin
For the molecule B1, the binding signal in [1] was determined as 3.46 Z-score; in data set [2], 6.78 Z-score; in data set [3] it was 6.78 Z-score; in the data set with bromodomain containing 3 [4], 6.79 Z-score; in [5], 6.78 Z-score; in data set [6], 6.73 Z-score. The binding signal came out at 6.29 Z-score in [7]; 6.45 Z-score in data set [8]; 6.19 Z-score in data set [9]; 6.4 Z-score in data set [10]; 6.68 Z-score in data set [11]; 6.62 Z-score in [12]. In addition, the values for the binding signal in [13] and in data set [14] were 6.17 Z-score and 6.79 Z-score, respectively.

B2: G4-3 biotinylated (CtG) (structured_DNA)
DNA: GGGGACAGGGGTATGGGGAGGGG
modifications: 3'-biotin
Take B2: the binding signal is 4.51 Z-score with bromodomain containing 3 [15], 7.02 Z-score in data set [16], 5.93 Z-score in data set [17] and 9.22 Z-score in data set [18].
